This note sets out measurements from US20230101735A1, “ANTI-TROP-2 ANTIDODY-EXATECAN ANALOG CONJUGATE AND MEDICAL USE THEREOF” (JIANGSU HENGRUI MEDICINE CO., LTD., priority 2020, published 2023).

Substitutions are numbered along the chain they refer to.

One experiment addresses T1, hTROP-2 (Homo sapiens, UniProt P09758).
T1 sequence (P09758 27-274): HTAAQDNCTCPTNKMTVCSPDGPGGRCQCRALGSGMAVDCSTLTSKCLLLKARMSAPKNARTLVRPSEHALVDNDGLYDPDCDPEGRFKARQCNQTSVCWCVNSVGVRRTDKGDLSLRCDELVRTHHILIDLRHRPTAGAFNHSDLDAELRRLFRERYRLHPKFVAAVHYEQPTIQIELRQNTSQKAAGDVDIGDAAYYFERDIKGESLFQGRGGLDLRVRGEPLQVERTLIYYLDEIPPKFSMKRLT
In words: Antibody protein level binding assay (ELISA). Particulars: absorbance at 450 nm. Here is the method:
(§1) hTROP-2 protein was diluted to 1 μg/mL with PBS buffer at pH 7.4 (Shanghai BasalMedia Technologies Co., LTD., B320), added into a 96-well microplate at 100 μL per well, and incubated at 4° C. overnight. After the liquid was discarded, 300 μL of 5% skim milk (BD, 232100) diluted with PBS was added into each well for blocking and incubated at 37° C. for 2 h. After the blocking was completed, the blocking solution was discarded; after the plate was washed 3 times with PBST buffer (pH 7.4, PBS containing 0.1% tween-20), 100 μL of a gradient diluted antibody solution was added into each well and incubated at 37° C. for 1 h. After the incubation was completed, the plate was washed 3 times with PBST buffer, and 100 μL of 1:8000 diluted mouse anti-human IgG (H+L) (Jackson ImmunoResearch, 209-035-088) was added into each well and incubated at 37° C. for 1 h. After the plate was washed 3 times with PBST buffer, 100 μL of TMB chromogenic substrate (KPL, 5120-0077) was added into each well and incubated at room temperature for 10-15 min, and the reaction was terminated by adding 50 μL of 1 M H2504 into each well. The plate was detected for the absorbance at 450 nm using a microplate reader, the binding curves of antibodies to antigen were fitted with software, and the EC50 value was calculated.
In general terms: In an ELISA, binding on a coated surface is turned into a signal by an enzyme label.

The test system of another experiment is TROP-2. The experiment in a line: Antibody endocytosis assay (DT3C cell killing). It counts as cell-based. To be noted: antibody-DT3C mixture, three days, CTG.
Experiment [1] addresses T2, TROP-2 expressed on tumor cell lines (FaDu, HCC827, Colo205, DMS53, SK-OV-3) (human, UniProt P09758 27-323).
T2 sequence: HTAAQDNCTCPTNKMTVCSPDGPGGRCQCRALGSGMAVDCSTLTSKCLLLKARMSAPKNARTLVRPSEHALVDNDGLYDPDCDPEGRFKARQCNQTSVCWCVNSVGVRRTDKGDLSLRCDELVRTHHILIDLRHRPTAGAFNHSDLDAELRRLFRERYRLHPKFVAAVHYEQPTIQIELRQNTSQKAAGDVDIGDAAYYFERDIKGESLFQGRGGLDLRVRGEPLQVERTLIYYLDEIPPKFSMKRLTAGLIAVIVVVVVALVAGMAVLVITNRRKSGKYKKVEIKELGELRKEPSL
In words: cell-based or functional assay.

In experiment [2] the target is T2, TROP-2 expressed on tumor cell lines …. In words: cell-based or functional assay. This is another data set of the same source.
Experiment [3] deals with T3, hTROP-2 protein (huTROP-2 protein, His27-Thr274, accession No. NP_002344.2) (human, UniProt P09758 27-274).
T3 construct: No tag is stated for this construct; also called antigen hTROP-2
T3 sequence: T1 sequence (P09758 27-274)
In words: ELISA, plate coated with hTROP-2 protein at 1 ug/mL, anti-human IgG detection, OD450. As for the experimental part: as §1, with “EC₅₀” for “EC50”

Experiment [4] addresses T3, hTROP-2 protein (huTROP-2 protein, …). In words: SPR (Biacore T200), antibody captured on chip, hTROP-2 as analyte, 1:1 Langmuir fit. The text has this:
The affinity of antibody for TROP-2 was detected in a form of a capture antibody. […] After dissociation was completed for each assay cycle, the chip was washed clean and regenerated with regeneration buffer, Glycine1.5 (Cat. #BR100354, GE) or 3 M MgCl₂ (from Human antibody capture kit, Cat. #BR100839, GE). After the assay was completed, the data were fitted with (1:1) Langmuir model using GE Biacore T200 Evaluation version 3.0 to obtain affinity values.
(In SPR one partner is held on a chip, and binding of the other changes the refractive index at the surface.)

The target of experiment [5] is T4, human TROP-2 on stably transfected CHO-K1 cells (CHO-K1/hTROP-2) (human, UniProt P09758 27-323).
T4 construct: Full-length TROP-2 (Genbank NP_002344.2) expressed from a lentiviral vector; also called stably transfected TROP-2-expressing CHOK1 cells; hTROP-2 protein-expressing cells
T4 sequence: T2 sequence
The experiment in a line: flow cytometry (geometric mean fluorescence) on stably transfected TROP-2-expressing CHOK1 cells, Alexa Fluor 488 anti-human IgG detection. Here is the method:
(§2) After centrifugation and removal of the supernatant, the test antibodies that was diluted with FACS buffer to different concentrations were added at 50 μL/well. The plate was incubated in the dark in a 4° C. refrigerator for 1 h. The plate was washed 3 times with FACS buffer by centrifugation at 300 g, and Alexa Fluor 488 goat anti-human IgG (H+L) (invitrogen, A-11013) at working concentration was added. The plate was incubated in the dark in a 4° C. refrigerator for 40 min. The plate was washed 3 times with FACS buffer by centrifugation at 300 g and tested on a BD FACSCantoII flow cytometer for geometric mean fluorescence intensity (MFI). The binding EC₅₀ value of the antibody to the stably transfected TROP-2-expressing cells was calculated.

Experiment [6] addresses T4, human TROP-2 on stably transfected …. In words: flow cytometry on stably transfected TROP-2-expressing CHOK1 cells. As for the experimental part:
as §2

One may read the Emax as the size of the effect at its maximum, as opposed to the concentration needed. Consider “hRS7: control anti-TROP-2 antibody, heavy chain SEQ ID NO: 15, light chain SEQ ID NO: 16, constructed with reference to WO03074566 [reference compound]”, for which the “Emax (OD value)” value with hTROP-2 is recorded as 1.37 OD value. Also, the Emax in the experiment with TROP-2 is listed as 98.5%.

B1: ADC-4 (TINA-58, n=3.99) (antibody, human IgG1, kappa, V domains shown)
VH: QVQLVQSGAEVKKPGASVKVSCKASGYTFTTAGMQWVRQAPGQGLEWMGWINTHSGVPKYAEDFKGRVTISADTSTSTAYLQLSSLKSEDTAVYYCARSGFGSSYWYFDVWGQGTLVTVSS
VL: DIQMTQSPSSLSASVGDRVTITCKASQDVSTAVAWYQQKPGKAPKLLIYSASYRYTGVPSRFSGSGSGTDFTLTISSLQPEDFAVYYCQQHYITPLTFGQGTKLEIKR
modifications: compound 58 coupled to cysteine thiols after TCEP reduction; positions not given; compound 58 (linker-drug) coupled to cysteine thiols after TCEP reduction; mean n=3.99 per antibody, positions not given
With B1, in experiment [1], the “EC50 (nM), killing of Colo205 cells” value was found to be 59.8 nM; the “EC50 (nM), killing of DMS53 cells” value amounted to 75.6 nM; the “EC50 (nM), killing of FaDu cells (CTG, 6 days)” value is 0.53 nM; the “EC50 (nM), killing of HCC827 cells” value was determined as 0.27 nM. Moreover, in experiment [1], the “Emax (%), killing of Colo205 cells” value was 99.7%; the “Emax (%), killing of DMS53 cells” value turned out to be 89.8%; the “Emax (%), killing of FaDu cells” value stood at 101%; the “Emax (%), killing of HCC827 cells” value amounted to 88.2%. In addition, in experiment [1], the “Emax (%), killing of SK-OV-3 cells” value is 49.1%.

B2: ADC-5 (PD3-58, n=3.88) (antibody, human IgG1, kappa, V domains shown)
VH: EVQLVQSGSELKKPGASVKVSCKASGYTFTNYGMNWVKQAPGQGLKWMGWINTYTGEPTYTQDFKGRFAFSLDTSVSTAYLQISSLKAEDTAVYYCARGGFGSSYWYFDVWGQGTLVTVSS
VL: B1 VL with M4L, T20S, T31I, S60D, Q100A, L104V
modifications: compound 58 coupled to cysteine thiols after TCEP reduction; positions not given; compound 58 coupled to cysteine thiols after TCEP reduction; mean n=3.88 per antibody, positions not given
As for B2, in experiment [2], the “EC50 (nM), killing of Colo205 cells (second parallel assay)” value is 25.6 nM; the “EC50 (nM), killing of DMS53 cells (second parallel assay)” value turned out to be 25.7 nM; the “EC50 (nM), killing of FaDu cells (second parallel assay)” value is 0.14 nM; the “EC50 (nM), killing of HCC827 cells (second parallel assay)” value is 0.13 nM.

B3: PD3 anti-TROP-2 antibody (antibody, human IgG1, kappa, V domains shown)
VH: B2 VH
VL: B1 VL with M4L, T20S, T31I, S60D, Q100A, L104V
notes: CDR-mutated variant designed on the hRS7 template; also called PD3 antibody
One may read the EC50 as the concentration giving half of the maximal effect. Lower therefore signals greater potency. As usually defined, the Kd is a measure of binding affinity in units of concentration. A higher Kd goes with weaker binding. For orientation: EC50 (read off the curve) means the concentration that produces a half-maximal response. The low end stands for a more potent agent, the high end for a less potent agent. In the case of B3, in experiment [3], the EC50 turned out to be 13.6 nM and the “Emax (OD value)” value was 1.4 OD. The molecule further came in with a Kd in experiment [4] of 0.686 nM. In addition, the “EC50 (read off the curve)” value in experiment [5] was approximately 2 µg/mL. Moreover, in experiment [6], the response was half-maximal at 1.57 nM (EC50) and the “Emax (MFI)” value worked out at 16700 MFI.

B4: TINA anti-TROP-2 antibody (control molecule) (antibody, human IgG1, kappa, V domains shown)
VH: B1 VH
VL: B1 VL
On to B4, for which, in experiment [3], the EC50 was 16.1 nM and the “Emax (OD value)” value came to 1.39 OD. This molecule also had a Kd in experiment [4] of 21.5 nM. In addition, in experiment [5], the “EC50 (read off the curve)” value was approximately 4 µg/mL. In experiment [6], the response was half-maximal at 3.55 nM (EC50) and the “Emax (MFI)” value was 14200 MFI.

B5: ADC-7 (hRS7-9-A, n=3.72) (antibody, human IgG1, kappa, V domains shown)
VH: B2 VH with E1Q, V5Q, Q62D, E89D, Y95F, T115S
VL: B1 VL with M4L, T20S, T31I, S60D, Q100A, L104V
modifications: compound 9-A coupled to cysteine thiols after TCEP reduction; positions not given; compound 9-A coupled to cysteine thiols after TCEP reduction; mean n=3.72 per antibody, positions not given
B5: in experiment [1], the “EC50 (nM), killing of Colo205 cells” value worked out at 52.8 nM; the “EC50 (nM), killing of DMS53 cells” value was 72.9 nM; the “EC50 (nM), killing of FaDu cells (CTG, 6 days)” value is 0.31 nM; the “EC50 (nM), killing of HCC827 cells” value worked out at 0.18 nM. In experiment [1], the “Emax (%), killing of Colo205 cells” value stood at 99.5%; the “Emax (%), killing of DMS53 cells” value worked out at 88.7%; the “Emax (%), killing of FaDu cells” value turned out to be 101%; the “Emax (%), killing of HCC827 cells” value is 89.3%. In experiment [1], the “Emax (%), killing of SK-OV-3 cells” value was found to be 66.1%.

B6: hRS7 anti-TROP-2 antibody (control molecule) (antibody, human IgG1, kappa, V domains shown)
VH: B2 VH with E1Q, V5Q, Q62D, E89D, Y95F, T115S
VL: B1 VL with M4L, T20S, T31I, S60D, Q100A, L104V
In the case of B6, in experiment [3], the concentration giving a half-maximal response (EC50) worked out at 18.3 nM and the “Emax (OD value)” value is 1.37 OD. This molecule also displayed a dissociation constant Kd in experiment [4] of 0.987 nM. Further, in experiment [5], the “EC50 (read off the curve)” value was approximately 3 µg/mL. In experiment [6], the EC50 was found to be 2.31 nM and the “Emax (MFI)” value was found to be 16000 MFI.
